This is an account of results in publication PMC7888926.

The target of one series is GST-His6-2×HBD (UniProt O60930). The series can be described thus: BLI. The settings on record: EMSA: 30 nM probe, 20 mM Hepes pH 7.0, 100 mM NaCl, 5% glycerol, 10 mM DTT, 0.5 mM EDTA, 5 ug/ml salmon sperm DNA, 25°C 30 min; BLI: 20 mM Hepes-NaOH pH 7.5 ….
In a further series the target is T1, GST-His6-HBD (UniProt O60930).
T1 sequence (O60930 whole entry, looked up): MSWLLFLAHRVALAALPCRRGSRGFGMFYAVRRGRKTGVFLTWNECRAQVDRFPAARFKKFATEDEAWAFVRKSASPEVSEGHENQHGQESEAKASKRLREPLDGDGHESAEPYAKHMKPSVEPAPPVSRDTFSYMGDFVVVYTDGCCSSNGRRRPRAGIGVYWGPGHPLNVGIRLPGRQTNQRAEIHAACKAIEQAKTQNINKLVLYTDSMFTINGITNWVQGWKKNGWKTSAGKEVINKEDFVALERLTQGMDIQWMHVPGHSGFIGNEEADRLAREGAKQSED
Kind of series: BLI. The settings on record: EMSA: 30 nM probe, 20 mM Hepes pH 7.0, 100 mM NaCl, 5% glycerol, 10 mM DTT, 0.5 mM EDTA, 5 ug/ml salmon sperm DNA, 25°C 30 min; BLI: 20 mM Hepes-NaOH pH 7.5 ….

As for “AGCGTGCCGTGCAACAACATTACAC / GUGUAAUGUUGUUGCACGGCACGCU [biotin DNA-RNA hybrid 25-mer (BLI)]”, the Kd turned out to be 10.4 nM with GST-His6-2×HBD and 16.5 nM with GST-His6-HBD.
